This is an account of results in patent US20220305003A1, “METHODS OF TREATING CANCER WITH AN INHIBITOR OF ZNF827” (CHILDREN'S MEDICAL RESEARCH INSTITUTE, priority 2019, published 2022).

Experiment [1] concerns the target T1, replication protein A (RPA), heterotrimeric complex (human, UniProt P27694 1-616; P15927 1-270; P35244 2-121).
T1 construct: Endogenous RPA of human cell lines, detected with an RPA2 (RPA32) antibody; also called detected through RPA32; RPA2
Kind of experiment: co-IP of Myc-DDK-tagged ZNF827 mutants, Western blot for RPA. As to the method: (§1) Resuspended cells were lysed by incubation with rotation for 1 hour at 4° C. For Benzonase treatment to remove DNA, samples were incubated in the lysis buffer described above supplemented with 25 U Benzonase nuclease (Novagen, Merck Millipore) for 2 hours at 4° C. Lysates were subjected to centrifugation at 13,000 rpm for 40 minutes at 4° C. to remove cell debris. The supernatant was then transferred to a fresh cold low bind 1.5 mL tube for subsequent immunoprecipitation. For immunoprecipitation, protein lysates were incubated with antibody for the protein of interest (10 μg per mL lysate) or IgG control (Refer to Tables 4 and 5 for the list of antibodies used in this study), preincubated with Dynabeads Protein G, as per manufacturer's instructions (Life Technologies), with rotation overnight at 4° C. The following day, beads were washed three times in cold lysis buffer and separated on a magnetic rack. Proteins were then eluted from the beads by resuspension in 50 mM Glycine pH 2.8 and sodium dodecyl sulphate (SDS) sample buffer (0.2 M Tris-Cl, pH 6.8, 28% glycerol, 13.5% β-mercaptoethanol, 6% SDS, 6 mM EGTA, and 0.07% bromophenol blue) for 10 minutes at 70° C. and subjected to Western blot analysis, as described below, to detect various protein interactions. […]
For orientation: A western blot detects proteins with antibodies after separation by electrophoresis.

Experiment [2] concerns the target T2, topoisomerase 2-binding protein 1 (TOPBP1) (human, UniProt Q92547 1-1522).
T2 construct: TOPBP1 in lysates of human cells, co-immunoprecipitated with Myc antibody
As to the kind of experiment: co-IP with Myc antibody, Western blot for TOPBP1. As to the method: as §1

T2 sequence (Q92547 whole entry): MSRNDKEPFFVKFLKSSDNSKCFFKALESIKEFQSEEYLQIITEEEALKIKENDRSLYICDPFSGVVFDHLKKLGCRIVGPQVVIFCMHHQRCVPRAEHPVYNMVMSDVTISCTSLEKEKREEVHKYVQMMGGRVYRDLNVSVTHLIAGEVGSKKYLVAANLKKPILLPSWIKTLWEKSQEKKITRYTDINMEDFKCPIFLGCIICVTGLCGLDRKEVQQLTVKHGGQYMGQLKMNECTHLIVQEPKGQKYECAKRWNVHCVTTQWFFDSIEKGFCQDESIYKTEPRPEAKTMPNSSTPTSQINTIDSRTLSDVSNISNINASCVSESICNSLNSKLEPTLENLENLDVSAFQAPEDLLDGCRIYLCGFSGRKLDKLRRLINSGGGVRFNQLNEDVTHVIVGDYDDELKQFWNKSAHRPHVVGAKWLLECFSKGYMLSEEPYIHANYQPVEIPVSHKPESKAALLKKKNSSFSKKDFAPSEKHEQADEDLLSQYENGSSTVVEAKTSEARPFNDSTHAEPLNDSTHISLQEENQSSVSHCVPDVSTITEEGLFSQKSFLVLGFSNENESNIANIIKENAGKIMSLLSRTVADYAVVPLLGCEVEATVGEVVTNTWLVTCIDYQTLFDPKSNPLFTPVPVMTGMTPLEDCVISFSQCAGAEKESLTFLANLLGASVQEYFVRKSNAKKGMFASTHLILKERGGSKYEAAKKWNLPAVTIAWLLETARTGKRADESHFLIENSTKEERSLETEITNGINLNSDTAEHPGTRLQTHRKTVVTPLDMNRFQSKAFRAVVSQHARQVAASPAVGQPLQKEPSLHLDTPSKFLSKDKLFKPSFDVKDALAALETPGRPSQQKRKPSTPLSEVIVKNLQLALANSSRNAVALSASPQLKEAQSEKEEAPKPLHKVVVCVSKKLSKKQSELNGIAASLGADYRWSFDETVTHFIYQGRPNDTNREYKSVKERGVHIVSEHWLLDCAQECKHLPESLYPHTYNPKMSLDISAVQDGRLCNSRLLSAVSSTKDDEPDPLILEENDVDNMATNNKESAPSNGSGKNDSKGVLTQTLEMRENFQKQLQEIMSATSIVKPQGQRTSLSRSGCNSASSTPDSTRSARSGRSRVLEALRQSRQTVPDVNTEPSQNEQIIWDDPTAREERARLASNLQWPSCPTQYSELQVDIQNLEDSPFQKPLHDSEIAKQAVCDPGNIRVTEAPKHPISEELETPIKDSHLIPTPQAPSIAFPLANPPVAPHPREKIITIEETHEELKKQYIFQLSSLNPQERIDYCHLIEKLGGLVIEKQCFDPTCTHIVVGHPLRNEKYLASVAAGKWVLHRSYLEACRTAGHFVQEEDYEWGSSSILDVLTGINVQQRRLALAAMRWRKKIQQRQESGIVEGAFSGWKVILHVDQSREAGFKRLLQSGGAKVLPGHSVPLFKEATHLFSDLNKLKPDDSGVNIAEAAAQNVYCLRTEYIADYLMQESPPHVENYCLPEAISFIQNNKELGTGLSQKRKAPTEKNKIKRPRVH
T1 sequence (P27694 whole entry, chain 1 of 3): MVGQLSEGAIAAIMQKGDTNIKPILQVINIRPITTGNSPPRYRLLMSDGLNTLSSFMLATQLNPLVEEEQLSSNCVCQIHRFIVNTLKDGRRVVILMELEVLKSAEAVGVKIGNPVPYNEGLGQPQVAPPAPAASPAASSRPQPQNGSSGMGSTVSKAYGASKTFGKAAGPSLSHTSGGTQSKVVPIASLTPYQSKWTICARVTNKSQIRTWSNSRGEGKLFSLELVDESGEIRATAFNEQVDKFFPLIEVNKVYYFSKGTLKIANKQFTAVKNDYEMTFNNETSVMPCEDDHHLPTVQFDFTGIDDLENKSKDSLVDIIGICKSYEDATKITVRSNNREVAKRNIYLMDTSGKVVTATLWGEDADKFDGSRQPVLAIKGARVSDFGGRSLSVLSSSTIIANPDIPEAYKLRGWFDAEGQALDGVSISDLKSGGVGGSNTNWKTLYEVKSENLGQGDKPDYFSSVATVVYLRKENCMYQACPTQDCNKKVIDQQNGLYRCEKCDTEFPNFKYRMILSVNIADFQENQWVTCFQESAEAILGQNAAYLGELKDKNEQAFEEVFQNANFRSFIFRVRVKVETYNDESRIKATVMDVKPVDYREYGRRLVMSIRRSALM
T1 sequence (P15927 whole entry, chain 2 of 3): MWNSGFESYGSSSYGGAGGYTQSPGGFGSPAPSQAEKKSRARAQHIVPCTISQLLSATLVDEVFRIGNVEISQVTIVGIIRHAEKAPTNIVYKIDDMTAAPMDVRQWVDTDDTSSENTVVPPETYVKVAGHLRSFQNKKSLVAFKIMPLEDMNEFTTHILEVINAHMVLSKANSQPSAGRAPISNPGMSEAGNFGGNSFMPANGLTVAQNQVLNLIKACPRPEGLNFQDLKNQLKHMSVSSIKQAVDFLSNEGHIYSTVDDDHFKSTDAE
T1 sequence (P35244 2-121 limits assumed, chain 3 of 3): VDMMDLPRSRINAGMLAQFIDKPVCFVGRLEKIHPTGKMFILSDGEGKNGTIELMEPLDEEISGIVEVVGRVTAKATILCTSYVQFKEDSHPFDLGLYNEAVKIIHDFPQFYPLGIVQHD

B1: ZNF827 mutant with no zinc fingers (ZnF1-9 deleted) (other)
chain: MPRRKQEQPKRLPSHVSRQEEAEGELSEGEHWYGNSSETPSEASYGEVQENYKLSLEDRIQEQSTSPDTSLGSTTPSSHTLELVALDSEVLRDSLQCQDHLSPGVSSLCDDDPGSNKPLSSNLRRLLEAGSLKLDAAATANGRVESPVNVGSNLSFSPPSHHAQQLSVLARKLAEKQEQNDQYTPSNRFIWNQGKWLPNSTTTCSLSPDSAILKLKAAANAVLQDKSLTRTEETMRFESFSSPFSSQSASSTLAALSKKVSERSLTPGQEHPPPASSFLSLASMTSSAALLKEVAARAAGSLLAEKSSLLPEDPLPPPPSEKKPEKVTPPPPPPPPPPPPPPPQSLELLLLPVPKGRVSKPSNSASEEESGKPQHFLRTEAKVKEEIPDPDVKGSPHLSDSACLGQQREGGGTELVGTMMTSNTPERTSQGGAGVSPLLVKEEPKEDNGLPTSFTLNAADRPATRTRPLEQKLISEEDLAANDILDYKDDDDKV
notes: also called ZnF1-9d mutant
As for B1, the binding result in experiment [1] and in experiment [2] was “no binding” in each case.
